# Laboratory results published in the supplement of paper PMC10724198.
# ± gives the standard deviation of the averaged measurements.
# Test system: Saccharomyces cerevisiae
# Test: protein stability index of tFT-peptide fusion (C-terminal peptide) (PSI (0-1 scale)); higher = more stable (slower turnover)
# Settings: temperature: 30 C
# Procedure: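 MPS profiling in S. cerevisiae of the yeast C-terminome library: the last 12 aa of each annotated ORF are fused to the C-terminus of a sfGFP-mCherry timer, after a GGGS linker. Cells are FACS-sorted into 8 mCherry/sfGFP bins and deep-sequenced. PSI runs from 0 (unstable) to 1 (stable); wild type and das1Δ backgrounds, two technical replicates each.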
# [1] = genetic background: das1 deletion
Sequence,protein stability index [1],protein stability index (genetic background: wild type)
EYGGYGEYGNGS [RTG1 C-terminal 12 aa],0.6949 ± 0.0018,0.674 ± 0.0096
LALNRDDPPDML [PEA2 C-terminal 12 aa],0.6989 ± 0.0011,0.755 ± 0.13
SLRSFFVKQKVL [ERP6 C-terminal 12 aa],0.641 ± 0.0083,0.185 ± 0.025
PLNDQVCPNSPL [YLR154W-F C-terminal 12 aa],0.7273 ± 0.0053,0.694 ± 0.033
CKQWEISNMLKK [CSI1 C-terminal 12 aa],0.738 ± 0.023,0.664 ± 0.04
YPKFIKGHEEYF [BSC6 C-terminal 12 aa],0.702 ± 0.035,0.715 ± 0.0089
ANESLEEDLNLD [YBR137W C-terminal 12 aa],0.698 ± 0.031,0.661 ± 0.025
FSALVLRGVRGE [YBR196C-B C-terminal 12 aa],0.698 ± 0.014,0.6769 ± 0.0067
YGLLKFHSVFES [YMR209C C-terminal 12 aa],0.707 ± 0.0069,0.668 ± 0.054
ERVKIGVQFYEE [RTG2 C-terminal 12 aa],0.708 ± 0.013,0.736 ± 0.042
IYDWAGEYPLAV [SHM2 C-terminal 12 aa],0.707 ± 0.026,0.737 ± 0.0049
YNPPDYEPEAKK [PHM7 C-terminal 12 aa],0.6998 ± 0.0052,0.639 ± 0.008
MDLEKDRYYDLS [DAS2 C-terminal 12 aa],0.6908 ± 0.0068,0.68 ± 0.027
RQVLDREGLRFG [TRS31 C-terminal 12 aa],0.693 ± 0.027,0.705 ± 0.0087
KRLHQLDGIPHA [MEO1 C-terminal 12 aa],0.703 ± 0.0079,0.6852 ± 0.0018
KQYIEPESVKPN [ABD1 C-terminal 12 aa],0.6996 ± 0.0034,0.722 ± 0.051
SSLDEVLAKDKD [MIN8 C-terminal 12 aa],0.736 ± 0.018,0.6795 ± 0.0061
KEKKDKKKKSKD [NOP56 C-terminal 12 aa],0.686 ± 0.025,0.661 ± 0.022
HIFEKKIFHTNL [YOL097W-A C-terminal 12 aa],0.706 ± 0.018,0.65 ± 0.027
ATTDQEGDIHLE [PRE10 C-terminal 12 aa],0.689 ± 0.026,0.678 ± 0.038
SRTPPARRQRHR [CWC22 C-terminal 12 aa],0.7133 ± 0.0015,0.671 ± 0.012

Sequence,protein stability index [1],protein stability index (genetic background: wild type)
DIIKQGVNDIIV [ARD1 C-terminal 12 aa],0.672 ± 0.015,0.717 ± 0.033
YSWMQPESGWNP [YER188W C-terminal 12 aa],0.738 ± 0.011,0.722 ± 0.032
SELENKFSNQES [FPY1 C-terminal 12 aa],0.7048 ± 0.0039,0.735 ± 0.053
FAAPIKPSTRAG [YLR347W-A C-terminal 12 aa],0.6876 ± 0.0016,0.71 ± 0.0086
GYQRGLDEFNKY [MRX18 C-terminal 12 aa],0.7148 ± 0.0013,0.681 ± 0.04
NEIATKLEETKL [TYS1 C-terminal 12 aa],0.694 ± 0.037,0.687 ± 0.0072
SIQWIWRYSFVY [YIR020C C-terminal 12 aa],0.464 ± 0.0072,0.44 ± 0.025
YAVFTVLFSIIF [SPS2 C-terminal 12 aa],0.297 ± 0.013,0.295 ± 0.0078
SFDDGRVKRQRT [IOC3 C-terminal 12 aa],0.69 ± 0.014,0.715 ± 0.075
ITSLKSDEYLVQ [RET2 C-terminal 12 aa],0.73 ± 0.046,0.724 ± 0.085
IPAKKTKISLDY [ELP4 C-terminal 12 aa],0.6845 ± 0.0032,0.677 ± 0.018
RKVPYKIIPYVY [ERG24 C-terminal 12 aa],0.514 ± 0.019,0.5005 ± 0.0021
LRNKPFWENKRL [IPL1 C-terminal 12 aa],0.702 ± 0.019,0.696 ± 0.015
ICAWLLFFETIH [BST1 C-terminal 12 aa],0.458 ± 0.018,0.521 ± 0.059
NIHQTDYIYARL [BUD16 C-terminal 12 aa],0.798 ± 0.031,0.708 ± 0.12
SFMSYSCDMPTP [YCL022C C-terminal 12 aa],0.7225 ± 0.0042,0.727 ± 0.071
FGNDMVINFETD [UTP22 C-terminal 12 aa],0.7438 ± 0.0026,0.731 ± 0.12
KPDSTAVRNEDE [YNR065C C-terminal 12 aa],0.7 ± 0.012,0.66 ± 0.072
IFWLALIYNAIQ [LOH1 C-terminal 12 aa],0.479 ± 0.016,0.43 ± 0.027
EFAKCEFETPAV [CKB1 C-terminal 12 aa],0.722 ± 0.011,0.74 ± 0.0048
NGLKYHRGHSTH [SFP1 C-terminal 12 aa],0.703 ± 0.029,0.6745 ± 0.0032

Sequence,protein stability index [1],protein stability index (genetic background: wild type)
SRILQYKCIFTY [ARP8 C-terminal 12 aa],0.517 ± 0.023,0.2402 ± 0.0014
HLSMVCDLELQL [NGL2 C-terminal 12 aa],0.738 ± 0.072,0.659 ± 0.045
TIYDGEAVAKYI [PRE5 C-terminal 12 aa],0.6775 ± 0.0025,0.7 ± 0.046
EAETPGIIDKHQ [SIS2 C-terminal 12 aa],0.689 ± 0.023,0.677 ± 0.044
LFTAMRTVLFGK [CBP6 C-terminal 12 aa],0.704 ± 0.0044,0.72 ± 0.14
LILHFVCLHFIN [OST2 C-terminal 12 aa],0.544 ± 0.017,0.184 ± 0.027
LFFLVGLQLAIP [YGR022C C-terminal 12 aa],0.324 ± 0.002,0.327 ± 0.0074
SDISDLDDLGFL [RPN3 C-terminal 12 aa],0.7213 ± 0.0065,0.679 ± 0.028
MLQYLVFVYIEK [YCR085W C-terminal 12 aa],0.182 ± 0.0095,0.21 ± 0.016
FRNYRGHYRGRK [SGS1 C-terminal 12 aa],0.705 ± 0.03,0.685 ± 0.039
NEDWPNESKPLV [GOR1 C-terminal 12 aa],0.711 ± 0.0072,0.663 ± 0.011
PADIDKYIIQRK [FMP46 C-terminal 12 aa],0.7015 ± 0.0048,0.672 ± 0.029
SGGWDRSIKLWN [PRP4 C-terminal 12 aa],0.711 ± 0.01,0.681 ± 0.026
VRLRGRKRSMLG [BUD32 C-terminal 12 aa],0.701 ± 0.02,0.665 ± 0.023
INIQQFAALLSK [CMD1 C-terminal 12 aa],0.66 ± 0.0085,0.68 ± 0.0055
FTGGDILPPEFN [SPS18 C-terminal 12 aa],0.7639 ± 0.0048,0.739 ± 0.015
LATMILARMSCS [IRA1 C-terminal 12 aa],0.682 ± 0.023,0.657 ± 0.035
YASRGTGELWSP [NMD4 C-terminal 12 aa],0.7031 ± 0.004,0.714 ± 0.0047
DDTLERAGRIKN [FAD1 C-terminal 12 aa],0.69 ± 0.023,0.709 ± 0.019
